{"source": "patent US20140193401A1", "key": {"[1]": {"target": "PTx-S1E (residues 1-220, D34E, S162P, I198M) (Bordetella pertussis) (UniProt Q7WDU8)", "assay": "SPR (BIAcore 3000), mAb 1B7 immobilised on CM5 chip, toxin injected"}, "[2]": {"target": "pertussis toxin holotoxin (Bordetella pertussis) (UniProt P04977)", "assay": "cell-based or functional assay"}, "[3]": {"target": "pertussis toxin holotoxin (Bordetella pertussis) (UniProt P04977)", "assay": "competition ELISA (Friguet), 5 nM antibody with PT in solution, coated PT"}, "[4]": {"target": "PTx-S1-220 R79A (Bordetella pertussis) (UniProt P04977)"}, "[5]": {"target": "PTx-S1-220 R79A (Bordetella pertussis) (UniProt P04977)", "assay": "ELISA, hu1B7 as primary antibody; EC50 as percent of the PTx reference"}}}
{"substance": "murine monoclonal antibody 1B7", "values": [{"measurement": "koff", "setting": "[1]", "result": 0.0018, "unit": "s⁻¹"}]}
{"substance": "murine monoclonal antibody 11E6", "values": [{"measurement": "In Vitro Neutralization (nM), minimum protective concentration, CHO clustering assay", "setting": "[2]", "result": 5.2, "unit": "nM"}, {"measurement": "Kd", "setting": "[3]", "result": 20, "unit": "nM"}]}
{"substance": "hu1B7 scAb (humanized 1B7 single-chain Fv with C-terminal human kappa constant domain) (scFv)", "values": [{"measurement": "% EC50 PTx", "setting": "[4]", "result": 1, "unit": "%"}, {"measurement": "% EC50 PTX", "setting": "[5]", "result": 1, "unit": "%"}]}
